The values below come from patent US20250333487A1 (CYTOMX THERAPEUTICS, published 2025).

Where no end group is shown, it is not given here. The star is where a group is joined. Biotin = O=C1N[C@H]2[C@H](CS[C@H]2CCCCC(=O)*)N1

Experiment [1] deals with T1, biotinylated BC2 tag peptide QGQSGQPDRKAAVSHWQ
T1 construct: Synthesized at ELIM Biopharmaceuticals; loaded on SSA biosensor tips at 100 nM; also called free BC2T peptide; the peptide
T1 peptide: Biotin-QGQSGQPDRKAAVSHWQ
The experiment can be described thus: BLI (ForteBio Octet), biotinylated peptide on SSA biosensor tips. As for the experimental part: Intact ProC653 and ProC654 show no binding to the biotinylated BC2 tag peptide, but binding was recovered upon activation with either MMP14 or MMP9, respectively.
(§1) Binding of the unmasked nanobody and single-anchored BC2T-Nb to free BC2T peptide was assessed by BLI using the ForteBio Octet device. While BLI is generally used to calculate association and dissociation kinetics of binding interactions, it was used herein to detect binding Peptide corresponding to the following sequence: […] (SEQ ID NO: 567) was synthesized at ELIM Biopharmaceuticals with a biotin at the N-terminus. The peptide was loaded on SSA biosensor tips (Pall/ForteBio Cat #18-5117) at 100 nM in Binding Buffer (BB: 1×PBS, pH 7.2, 5% glycerol, 0.1% Tween-20, 2% BSA) for 10 minutes. Baseline incubation in BB for 1 min before and after this capture step were used to confirm protein capture. The loaded tips were then incubated in 100 nM Nb in BB for 6 minutes followed by incubation in BB for 6 minutes. Changes in interference distance (nanometers) at the sensor tip are plotted against time to follow the binding/dissociation of soluble proteins from the immobilized ligand on the tip (FIG. 7).
(In general: Biolayer interferometry detects binding as a change in optical thickness at a sensor tip.)

Experiment [2] has as its target T1, biotinylated BC2 tag peptide …. The experiment can be described thus: BLI (ForteBio Octet), biotinylated peptide on SSA biosensor tips, 100 nM Nb. As for the experimental part: as §1

B1: ProC654 (PP078), single-anchored BC2T-Nb: BC2 tag-PLGLAG-Nanobody, intact (VHH)
chain: QGQSGQPDRKAAVSHWQQGGGSSGGSPLGLAGGGGSQVQLVESGGGLVQPGGSLTLSCTASGFTLDHYDIGWFRQAPGKEREGVSCINNSDDDTYYADSVKGRFTIFMNNAKDTVYLQMNSLKPEDTAIYYCAEARGCKRGRYEYDFWGQGTQVTVSSGGSHHHHHHHHHH
notes: Monomer, uncleaved (masked) form; also called single-domain antibody with MM attached with a CM PLGLAG
Consider B1, for which the binding result in experiment [1] is “no binding (tested: 100 nM)”.

B2: ProC649 (PP073), single-domain antibody (nanobody) with no MM attached, with His tag (VHH)
VHH: QVQLVESGGGLVQPGGSLTLSCTASGFTLDHYDIGWFRQAPGKEREGVSCINNSDDDTYYADSVKGRFTIFMNNAKDTVYLQMNSLKPEDTAIYYCAEARGCKRGRYEYDFWGQGTQVTVSS
notes: Monomer; also called unmasked nanobody; unmasked control
As to B2, the binding result in experiment [2] is reported as “binds”.

B3: ProC653 (PP077), single-anchored BC2T-Nb: BC2 tag-1490DNI-Nanobody, intact (VHH)
chain: QGQSGQPDRKAAVSHWQQGGGSSGGSISSGLLSGRSDNIGGGSQVQLVESGGGLVQPGGSLTLSCTASGFTLDHYDIGWFRQAPGKEREGVSCINNSDDDTYYADSVKGRFTIFMNNAKDTVYLQMNSLKPEDTAIYYCAEARGCKRGRYEYDFWGQGTQVTVSSGGSHHHHHHHHHH
notes: Monomer, uncleaved (masked) form; also called single-domain antibody with MM attached with a CM 1490DNI
For B3, the binding result in experiment [1] is recorded as “no binding (tested: 100 nM)”.
